Data published in patent publication US20170183660, “APTAMER TARGETING MAGE-A3 PEPTIDE AND USES THEREOF” (Academia Sinica, published 2017).

Columns and labels:
[1] = target: T1, MAGE-A3 peptide 111-125 (unmodified) (UniProt P43357); assay: ITC; 25 C, DPBS with 0.45% glucose, 5 mM MgCl2; dH -41 kcal/mol; settings: protein: synthetic; tags: none; peptide (synthetic, inferred)
T1 chain: RKVAELVHFLLLKYR
Method: (§1) Thermodynamic profile of the interaction between DNA and peptide was measured with a MicroCal iTC₂₀₀ (GE Healthcare Life Sciences) at 25° C. in washing buffer (0.45% glucose, 5 mM MgCl₂, in Dulbecco's Phosphate-Buffered Saline). The unmodified MAGE-A3₁₁₁₋₁₂₅ peptide (0.3 mM, 200 μl) was titrated with 18 successive injections of 2 μl aptamer (0.1 mM) at 150 s intervals. The data were analyzed using MicroCal Origin 7 and fit with a one-set-of sites binding model to obtain values of enthalpy change (AH) and association constant (Kₐ).

[2] = target: T1, MAGE-A3 peptide 111-125 (unmodified); assay: ITC; 25 C, DPBS with 0.45% glucose, 5 mM MgCl2; dH -24 kcal/mol; settings: protein: synthetic; tags: none; peptide (synthetic, inferred)
Method: as §1

NY-ESO-1 peptide 119-143 = NY-ESO-1 peptide 119-143 (UniProt P78358 P78358:119-143); assay: pulldown; specificity control peptide; settings: protein: synthetic; tags: peptide (synthetic, inferred), streptavidin beads
NY-ESO-1 peptide 157-170 = target: T2, NY-ESO-1 peptide 157-170 (UniProt P78358 P78358:157-170); assay: pulldown; specificity control peptide; settings: protein: synthetic; tags: peptide (synthetic, inferred), streptavidin beads
T2 chain: SLLMWITQCFLPVF

NY-ESO-1 peptide 87-111 = target: T3, NY-ESO-1 peptide 87-111 (UniProt P78358 P78358:87-111); assay: pulldown; specificity control peptide; settings: protein: synthetic; tags: peptide (synthetic, inferred), streptavidin beads
T3 chain: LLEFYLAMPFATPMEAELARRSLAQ

Work on AGCACTCAATATTCCC (ssDNA) [Ap16] yielded a Kd [1] of 95 nM.

B1: Ap52 (ssDNA)
DNA: ATCCAGAGTGACGCAGCAAGCACTCAATATTCCCTGGACACGGTGGCTTAGT
B1 was tested, and the Kd [2] was 57 nM, the binding result (NY-ESO-1 peptide 119-143) was “no binding” and the binding result (NY-ESO-1 peptide 157-170) was “no binding”. B1: no binding (NY-ESO-1 peptide 87-111).
